In the supplement of paper PMC12855868:

B1: library; numbered along this chain (parent)
chain: MAAAGGARLLRAASAVLGGPAGRWLHHAGSRAGSSGLLRNRGPGGSAEASRSLSVSARARSSSEDKITVHFINRDGETLTTKGKVGDSLLDVVVENNLDIDGFGACEGTLACSTCHLIFEDHIYEKLDAITDEENDMLDLAYGLTDRSRLGCQICLTKSMDNMTVRVPETVADARQSIDVGKTS

Variants of: B1
Test: scaled log2 fold change in cell abundance, elesclomol vs control (0 = silent mean, 1 = nonsense mean) (scaled log2 ratio); higher = higher viability under elesclomol (loss of FDX1 cuproptosis function)
Conditions: glucose 10 mM
Description: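 Deep mutational scan of full-length human FDX1: a pooled saturation-mutagenesis ORF library (every residue 2-184 mutated to all 19 amino acids plus stop, and silent codons where available) was expressed by lentivirus in FDX1-knockout ABC1 (14 days) or HEK293T (11 days) cells grown with elesclomol (ES) or DMSO control. Variant abundance came from ORF sequencing. The log2 fold change (ES vs control, mean of duplicates) was centred on the silent-variant mean (0) and scaled to the nonsense-variant mean (1). Higher values mean greater viability under ES, i.e. loss of FDX1 function in cuproptosis.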

[1] = with ABC1 FDX1 KO, elesclomol 5 nM, 14 days
[2] = with HEK293T FDX1 KO, elesclomol 40 nM, 11 days
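Also: variant abundance is its share of total variant reads in each endpoint sample, from next-generation sequencing of the integrated ORF PCR-amplified out of genomic DNA.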

Row | Variant | scaled log2 fold change [1] | scaled log2 fold change [2]
1 | A47H | 0.813 | 1.05
2 | A47F | 0.852 | 1.03
3 | A47W | 0.856 | 0.727
4 | A47G | 0.844 | 0.78
5 | A47K | 0.89 | 0.778
6 | A47V | 0.764 | 0.63
7 | A47C | 0.788 | 1.53
8 | A47E | 0.691 | 0.694
9 | A47S | 0.89 | 0.276
10 | A47M | 0.779 | 0.799
11 | A47D | 0.728 | 0.746
12 | A47Q | 0.722 | 0.93
13 | A47N | 0.833 | 1.56
14 | A47I | 0.83 | 0.523
15 | S46K | 0.678 | 0.519
16 | S46I | 0.589 | 0.715
17 | S46E | 0.844 | 0.526
18 | S46V | 0.489 | 0.421
19 | S46Q | 0.68 | 0.186
20 | S46M | 0.376 | 0.185
21 | S46L | 0.572 | 0.692
22 | S46H | 0.263 | 1.09
23 | S46P | 0.0875 | 0.866
24 | S46F | 0.279 | 0.769

Row | Variant | scaled log2 fold change [1] | scaled log2 fold change [2]
25 | S46Y | 0.737 | 0.775
26 | S46N | 0.338 | 0.643
27 | S46G | 0.864 | 0.651
28 | S46T | 0.617 | 0.182
29 | S46R | 0.93 | 0.639
30 | S50E | 0.344 | 0.116
31 | S50N | 0.219 | -0.357
32 | S50T | 0.208 | 
33 | S50A | -0.353 | 0.141
34 | S50D | -0.421 | -0.999
35 | S50K | -0.433 | 
36 | S50W | -0.149 | 
37 | S50I | 0.293 | -1.28
38 | S50P | -0.659 | 
39 | S50L | -0.847 | 
40 | S50R | -0.0286 | 0.0212
41 | S50C | 0.19 | 0.37
42 | S50G | 0.758 | 
43 | S50Y | -0.231 | 0.499
44 | S50H | 0.126 | 0.0217
45 | S50M | -0.234 | 
46 | A57R | 0.224 | 0.591
47 | A57I | 0.296 | 
48 | A57V | -0.164 | 0.356

Row | Variant | scaled log2 fold change [1] | scaled log2 fold change [2]
49 | A57M | -0.0569 | -0.0232
50 | A57C | 0.479 | 
51 | A57G | -0.0446 | 1.2
52 | A57H | 0.158 | -0.799
53 | A57E | -0.0705 | -0.933
54 | A57S | 0.247 | 0.0851
55 | A57F | -0.681 | -0.202
56 | A57D | 0.102 | -0.382
57 | A57Y | -0.233 | 0.129
58 | A57W | -0.231 | 0.0227
59 | A57L | -0.263 | 0.149
60 | A57Q | 0.12 | -0.354
61 | A57T | 0.0138 | -0.39
62 | A57N | 0.029 | 0.245
63 | A57K | 0.162 | -1.1
64 | A49T | 0.0135 | 
65 | A49Y | 0.29 | -1.02
66 | A49Q | 0.504 | 0.944
67 | A49K | 0.256 | -0.293
68 | A49H | 0.394 | 0.441
69 | A49R | 0.181 | 
70 | A49F | 0.00966 | -0.0173
71 | A49E | 0.155 | 
72 | A49D | 0.201 | 

Row | Variant | scaled log2 fold change [1] | scaled log2 fold change [2]
73 | A49W | 0.372 | -0.679
74 | A49I | 0.653 | 1.22
75 | A49N | -0.529 | -0.853
76 | A49M | -0.695 | -1.02
77 | A49G | -0.302 | 0.424
78 | A49S | 0.123 | 1.82
79 | A49C | 0.313 | -0.749
80 | A49P | 0.382 | 0.203
81 | A49L | -1.05 | -0.62
82 | A49V | -0.0734 | 
83 | S54D | -0.0274 | -0.0231
84 | S54Q | 0.175 | 1.12
85 | S54W | 0.208 | -0.341
86 | S54P | 0.151 | -0.0299
87 | S54V | -0.108 | -1.29
88 | S54A | 0.19 | -0.116
89 | S54E | -0.297 | 0.751
90 | S54I | 0.459 | 
91 | S54F | 0.138 | 0.0641
92 | S54K | -0.175 | -1
93 | S54T | 0.484 | -0.46
94 | S54Y | -0.0125 | -0.0955
95 | S54N | -0.135 | -0.939
96 | S54H | -0.807 | 

Row | Variant | scaled log2 fold change [1] | scaled log2 fold change [2]
97 | S54G | -0.1 | -0.00382
98 | S54L | -0.261 | -0.248
99 | S54C | -0.019 | -0.176
100 | S54R | 0.322 | -0.406
101 | S54M | -0.399 | 0.147
102 | E48G | 0.667 | 0.934
103 | E48I | 0.367 | 0.905
104 | E48H | 0.521 | 0.92
105 | E48K | 0.46 | 0.746
106 | E48R | 0.787 | 0.683
107 | E48F | 0.809 | 0.523
108 | E48V | 0.47 | 0.255
109 | E48M | 0.829 | 0.835
110 | E48W | 0.73 | 0.677
111 | E48Q | 0.747 | 0.877
112 | E48Y | 0.494 | 1.46
113 | E48L | 0.58 | 1.05
114 | E48A | 0.411 | 0.683
115 | E48N | 0.628 | 1.08
116 | E48P | 0.619 | 0.304
117 | E48C | 0.731 | 0.336
118 | E48S | 0.616 | 0.679
119 | E48T | 0.74 | -0.184
120 | E48D | 0.623 | 0.469
